According to a protein production outcome set (Wang et al. 2014):

Assay: label from the status in PepcDB records

With “MNRARTNDRRRAGDGPRRSRSAGRPQNSGRRPAAAPQGGEFALPKTITPALPAVETFAELDLPARMLAALGDQGVTEPFPIQAATLPNSLAGRDVLGRGRTGSGKTLAFGLALLARTAGKRAEPRRPLALVLVPTRELAQQVTDALTPYARAVGLRSATVVGGMSIGRQAGALRSGAEVVVATPGRLKDLIDRGDCALGDVTITVLDEADQMTDMGFMPQVTALLDQVAADGQRMLFSATLDRNVDKLVRRYLTDPVVHSVDPSAGAVTTMEHHVLHVQDEDKQRATIEIAARDGRVIMFLDTKHRVDRLVKHLLKSGVRAAGLHGGKSQPQRTRTLAQFKDGQVTALVATNVAARGIHVDNLDLVVNVDPPGDHKDYLHRGGRTARAGESGSVVTLVTPDQRREMTRLMSLAGITPQVTPVRSGEAELARITGAQTPSGVPVVITAPVVERPRRAAAGAGSPSRGRRGRSAQGRSGGQGTGTQARTGAAQSRTAGQSRTAAQGRPTGESPRRRPRRQSTGGSTGSAA” the protein production was “failed”.
With “MNIRERKRKHLEACLEGEVAYQKTTTGLEGFRLRYQALAGLALSEVDLTTPFLGKTLKAPFLIGAMTGGEENGERINLALAEAAEALGVGMMLGSGRILLERPEALRSFRVRKVAPKALLIANLGLAQLRRYGRDDLLRLVEMLEADALAFHVNPLQEAVQRGDTDFRGLVERLAELLPLPFPVMVKEVGHGLSREAALALRDLPLAAVDVAGAGGTSWARVEEWVRFGEVRHPELCEIGIPTARAILEVREVLPHLPLVASGGVYTGTDGAKALALGADLLAVARPLLRPALEGAERVAAWIGDYLEELRTALFAIGARNPKEARGRVERV” the protein production was “not failed”.
With “MSFSADALEGGLSSLKLAADKYRSILNDEKTGNIRWRYGGPPIFDTVNKLFEEERTHVQWRYDNPPDFNSVNQLFEEGQTKVWPEGSLEETVQNAIKSWEMEFSHKIRLQDFKTINPEKFKLFVNGREGLSAEETLRLGSYNALLKNSLPEEFQYYKPEEESFESSHDAFRSALPRGFAWEILSVYSGPPVIAFKFRHWGYFEGTFKGHAPTGEMVQFLGLGVLKVDESLRAEEIEIYYDPGELFGGLLKGPPISETKTTDSGDNTAEKQSCPFTH” the protein production was “failed”.
In the case of “MTYCVAMRLDAGLVFLSDSRTNAGVDAISTFRKMTVFEREGDRVMVLLTAGNLAISQAVRQVLTEARDKARSLWTARDMFEATTIVGEAVREVYDRDAAALAKAKIDFNVSIIFGGQIGGERPRLFNVYAAGNFIEATPENCYFQIGEAKYGKPIIDRLIRASLPLDEAAKCALISMDSTLKSNISVGLPLDLLVYEADSLRVTRFVAIDEENPYFAMIRSTWGKRLRQVFAEIEDPDWQTGTHPAHPLRRAGHPTAEVEPVRIAPPAAPPAAEGAAVPQRAPGPAFGQGAAAQRVAGGSHEPH”, the protein production is reported as “failed”.
In the case of “MSLSASLPLAIERRPAAWTFTLSRPEKRNALSAELVEALIDGVDAAHREQVPLLVFAGAGRNFSAGFDFTDYETQSEGDLLLRMVRIEMLLQRVAGSPSLTLALAHGRNFGAGVDLFAACKWRYCTPEAGFRMPGLKFGLVLGTRRFRDIVGADQALSILGSARAFDADEARRIGFVRDCAAQAQWPALIDAAAEAATALDPATRATLHRVLRDDHDDADLAALARSAAQPGFKARIRDYLAQPAAEGHHHHHH”, the protein production is reported as “not failed”.
For “MGPPERPSLGWTPKEADMQSGPQPDEWSSGWKPGDGGAAPLPLSPALSFLLLFPLASALQPTPLPFPELRLVGGPSRCRGRLEVMHSGSWGSVCDDDWDVVDANVVCRQLGCGLALPVPRPLTFGQGRGPIFLDNVECRGQEASLSECGSRGWGVHNCFHYEDVAVLCDEFLHTQPPARKVLTSIAPPTALQNGRGEGSVRLAGGASPCQGRVEILHGGLWGTVCDDDWGLPDAAVVCRQLGCGAALAATTNAFFGYGTGHILLDNVHCEGGEPRLAACQSLGWGVHNCGHHEDAGVLCAATGVGALPSRDTIRFTTAAWASGKKSGRLRLVGGPSPCRGRVEVLYAGGWGTVCDDDWDFADARVACREAGCGPALGATGLGHFGYGRGPVLLDNVGCTGTEARLSDCFHLGWGQHNCGHHEDAGALCAGEAVESDKEAAQAEQAGLRAHKRGSVHARTNNMGPEELGLQVQQDGSETTRMPSPRPRDGHLRLASGTHRCEGRVELFLGQQWGTVCDDAWDLRAAIVLCRQLGCGQALAALGEAHFGPGRGPILLDNVKCRGDESTLLLCSHIRWDVHNCDHSEDASVLCQPL”, the protein production was “failed”.
For “MKDFFPLQQGGLVLEWVNTETKLRQLWAFRHRIFREQLQWVPLCEDGFDRDAYDDFSDNLVLCRDGEVVGAIRLTTGEHPFMLEEEFSRLLAPGERIGKGAEYSEITRLAVDREALGARESIMAARLLYLGAWLWSQVQGVRWMYFVVEPVFYRRLVMMGFPIVPVGIPRPLDGGVMSMTGLLDWRQAKTELIRSLTRGVSSPSACQALWHEYDYSH”, the protein production was “failed”.
With “MRTTADRIRHTVGFELIGLLIFAPLASLVFGYALHQMGLVGAVASLIAAVWNYVYNILFDRGMLRFTGQLRKTPAIRVLHAILFEGGLLLVFLPSVAWYLDMTLLDAFIMDIAVAGFYMVYALVYNWVYDAVFPIPGLKAKEDSQPADCPSAN” the protein production was “failed”.
For “MERILLVLDDTGRGEIAFQKLKKLAEDGLRGEVYILYIREMEVPPFVPEEKELAAYHRLMTQSMKKLEGFKNQLEKAGLKVSDVSVVFGKYADRLLLVEKQIKPDLIVVGFKGGLLKRVIGGFFGKDPCEVLLKKSKASLLICR”, the protein production was “not failed”.
For “MYEAGLAEGESAYGHGGYISVPELPAGVAVRNSRRPDIIQESSYLRILAPAGGWLAAATLEKLADCAETYGRGLVHLTSGGTIEIYTGREQMLPLVRELNSGGLDVGSTGDDLRCLTACCGPVRCEHALVDAPALATYLGQRFIDDQQYPGYPQKVKSAVAGCPNDCIRAMMQKDHSFIGVYRDWPMVDGEMLAAWREKGGDLNGLLAACPAGALTLVGDTLEVDKERCWRCMACINYCPAIRPGRERGVAWVAGGKYGHRGPQGPMVGFVLVPFIPVADDDYTAVGDIFGAFLEFWADNAKKKERVGDFIARVGPLKILRELGLEAQPQILLSPKRNVY”, the protein production was “failed”.
For “MRTKILLLTFTLLSSFSVLSQGNDLEQGMYELNRGEFKAAIEQFRPLVNEGYAPAQYQMALVYLHGYSVRKDSMKALELFELSAAQNYPDAQFELALIYSDGKLVKQNLKKAFELTHKAANKDLPSAQFNLAVMYANGTGIKQDDFKASRWYQRAANQNYALAQFNLALLYSEGKGVEKSTELSYVWNTIASWNGYPNAEKSRLMDERDLSKLKIEKSIEKANDIYQKIRDQQEMKAKMAEKQNFY”, the protein production was “failed”.
For “MYRIIEAPNSGKYPFSHSLLIGKSCIIDTGSGEALAPLRVDCVLNTHWHEDHIAMNSIGRKVLAHPLDAEAIESYEEFRRRYGIGDSVRLFINFEFGQVDDVFEDGEQLEFEGVSVEVIHTPGHSAGHCCFVINNEAVFLGDIDLTSFGPWYGCLDCDVDDFVRSVKKMMREVERRDIEIAIPSHGRPVYGKEEIIGAMREYLKKIFERDKAIRELVRLGVDPVGKGIIYRKIPEPREIYLHFEKIMVEKHLTTSLDEFCLDLEHHHHHH”, the protein production was “failed”.
With “MNRGVIVTGGGHGIGKQICLDFLEAGDKVCFIDIDEKRSADFAKERPNLFYFHGDVADPLTLKKFVEYAMEKLQRIDVLVNNACRGSKGILSSLLYEEFDYILSVGLKAPYELSRLCRDELIKNKGRIINIASTRAFQSEPDSEAYASAKGGIVALTHALAMSLGPDVLVNCIAPGWINVTEQQEFTQEDCAAIPAGKVGTPKDISNMVLFLCQQDFITGETIIVDGGMSKRMIYHGDWNWFYKIDK” the protein production was “not failed”.
For “LRESEARFRMMADTSPIMLWVADQDKKMTFVNQSWLEFRGATLAEESGNGYLEGIHPDDKGHYLGVYSQAFGDRRRFELEYRYRRVDQQYRWIVNVGVPRYLEDGKFMGYVGSCLDITDRKQAQDILQKKLNQILLMRKISQEIRRSLQPTLIFQTAARQVGNVFAVSRCLIHNYSEATTLQVPVVAEYLGGQFTSLLAGEIAVEQAYDPTIIQGDRAMAVVDLDQDLNSTHTKAFYQRFQVKSFLAVRTSYQGKANGIIALHQCDRQRVWTADEIELLEAIAEQMGIALAQAALLEKERERRRELAQKNLELEKATWAAEAANRAKGEFLAMMSHEIRTPMNGVIGMT”, the protein production was “failed”.
With “MDRRIAMSLQVLGAGLGRTGTLSLKFALEHLGFGPCYHATEVAANMRTALPLWNAAERGAADWSAIFAGYRSSTDHPGCYYWRQLIEVYPQAKVVLTVRDPDSWFESVTQTILMPGRKSTFVGPEGETFSTFLKQQMGGRSQDRAFMVDYFNRWNQAVIDAVPSDRLLVFSSRQGWAPLCGFLSVPVPHKPYPHLHARPRLRWFTRGLRLPDDVAARERHVREYLQYLREDLFGLEHHHHHH” the protein production was “not failed”.
With “MVNVDHDRFTTLVHELNQAKYEFHYKCAELVSNHEAAQPKKVLDEKKMDLEKLYEKVKEVMKKMVAFAENPKKEG” the protein production was “failed”.
With “MLTDRELLILEEIVREYTENGQPIGSKTLMNNLPVKVSSATIRNDMAKLEEMGLIEKMHSSSGRIPSLMGYRYYVDHLLSPKKLNQSEAQQIQKGLGMHFREVDDIVRTSAEMLSNLTHYTALTLKPDQKDATLDGFRMVPLGGNQVMLILVSSNGDVTSQQFSIPRGMNSETVERVLRIMNDRLIGETLDQVYYHLKTDIPKIVEHYLHSNDGIIDIFENVVAQSSQDRYFIGGKLNILNFSKNVDVSSIRGLLTLFNENDQLDGLLGNNQSDLDVKIGDELSNALLKDFSLITATYDVGSRGKGLIAILGPTSMQYSKTLGLLDTFRDQLSNRMLEYYKHLDDS” the protein production was “failed”.
For “MKLAMKLRTRLFLSISALITVALLGLLLGLVSVMQMARTQESLIQHNFAILDLGLKLRQNLGDQLVLMTGATRNPPELEKIQRQFEELLEEASAQDTQEDVRNGLEGTWVDYRRFIDALKQFGTDPRGIRGNPQLSESFDSLRNGLLNVHRKALENISSAEINSRDRALWIAGLLGLVGLAVLCIGFVTAHGIARRFGAPIEALAKAADRIGEGDYEVTLPISSAAEMNLLTRRFGIMAEALRQHQATNVDELLAGQQRLQAVLDSIDDGLLMIDRQGHLEHLNPVAQRQLGWDESRLGQSLGEALSRPELDEQLHLVLRGGTLERAPEDLAIDIDGESRLLTYSMTPVSHTKGHILGAVMVLHDVTEQRAFERVRSEFVLRASHELRTPVTGMHMAFGLLQERLHFAPESREADLLNTVTEEMQRLMQLINDLLNFSRYQNGLQKLKLAPCSIETLLEEARARYEGQAQEQEIVLMLDIQEPMPRLHADQSQLERVLDNLLDNALRHTPPNGLIRLQARRHGERAIISVEDNGEGIAYGQQGRIFEPFVQVGRKKGGAGLGLALCKEIVQLHGGRMGVYSRPGQGTQFYMALLL”, the protein production was “failed”.
With “MEMMQDSFQVHRIPQSKYVDGVRWLPQASALNRFFATASYDADCDSSSIEIQSLDPNPRGNHNTNPLIESLSSWTSPSRVSSLEVAGNGGGGGSFKPMVSAATSSGSLHVLMIDLVEGAAIEEFYAAEGERFHVGRVEGVDWREGGECVTVGEDGRVNVVKIVNGEGLRYRKVFDGNGLVAYRAVKWASPTEFVTGGYGFGLQLWDQRKSGEAVSQLKGNWFQGKTSAIVHSIDIHPSRKHTCIAGGSSGTVFAWDLRWPQQPIVLSGVGASENINNPLSESEVWEVQYDSYTKSNVSSSRILPVMTCSEDGILGIIEQGEEPIELLAEPCAINSFDIDRQNPQDVICSLEWESIAVFSRP” the protein production was “failed”.
In the case of “MDKNTRVGKRKKRNKAMRIFWSVMAVILVAIGGFALYEYNTVKNAADTAYRSGGLGNAENGSKNSVISNSKPIAILLMGTDTGALGRTYKGRTDSIMVAVLNPKTKKTTLVSFERDQQVNLPDYPENSPSKLNAAYAYGNAKELAKVLKKYYNIPINAYVLINMGGLKTIVNKVVGVDIAPILSFSYEGYTFTKGKTTHMDGAKALAYSRMRYDDPEGDYGRQKRQRQVLSALLNKAESATTLLNSSFISSLSKQVQTDFTFSDMTSMAKRYLAATKDLKTDYTHGTSYMQDGVSYQKVSVSERQRISNLIRKTLGLKTKTVSTDSIDTSTSSSSSSSSTTTDSDTTGGAGNTAGPSDNGAAAGNGADSGTTGGYSAGNDQNNSTGY”, the protein production is reported as “failed”.
For “FLCMIPMFLYDFSSDKVIALIARILYFSDYFIVILFLIFIINSTKYSPFVLENVKRFKVMGCCLLINTIIECINGYNLNTNNIRIFGTDSGGISPLMVISFIFALMCFVIAETFDKAIKIKEDNDLTI”, the protein production was “failed”.
